From patent publication EP4484444A1

Molecular target: CPIII-Long (model substrate derived from procollagen III)
Experiment: cell-based or functional assay

enhancement factor of CPIII-Long cleavage by BMP-1 with 4 equivalents: > 3
enhancement factor of CPIII-Long processing by BMP-1: 1.7
Substance: human PCPE-1 fused to a C-terminal 8His tag (from UniProt Q15113 26-449)
